Reverse-splicing fitness data for 84 variants are collected here from the RNAGym collection of RNA variant scans (doi:10.1093/molbev/msab373).

B1: Azoarcus group I ribozyme (parent)
chain: GUGCCUUGCGCCGGGAAACCACGCAAGGGAUGGUGUCAAAUUCGGCGAAACCUAAGCGCCCGCCCGGGCGUAUGGCAACGCCGAGCCAAGCUUCGGCGCCUGCGCCGAUGAAGGUGUAGAGACUAGACGGCACCCACCUAAGGCAAACGCUAUGGUGAAGGCAUAGUCCAGGGAGUGGCGAAAGUCACACAAACCGG

Variants of B1 are the subject of this series. Nature of the series: reverse-splicing fitness (ratio to wild type); higher = more active; in vitro selection; Mg2+ level not given. In short, it runs like this:
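An in vitro group I ribozyme library with randomized positions was T7-transcribed and gel-purified. In triplicate, 10 pmol RNA in EPPS pH 7.5 was reacted with 50 pmoles of a 30-nt RNA substrate for 1 h at 37 °C across several added MgCl2 levels (1–48 mM), then stopped with EDTA. Products were reverse transcribed from a substrate-complementary primer, PCR-amplified and sequenced (HiSeq 4000). Fitness is a variant's read proportion after selection over that before, normalised to wild type.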
Take C82U A111G A145C C169G: the reverse-splicing fitness is 0.0078.

Take C82U A120G A145C C150U C169A U176C: the reverse-splicing fitness came to 0.00527.

C82U A111U A120U C150U C169A U176C: the reverse-splicing fitness is 0.00314.

Take C82U A120U A145C C150A C169G: the reverse-splicing fitness turned out to be 0.00203.

As to C82U A111C A120U A145U C150A C169U, the reverse-splicing fitness came out at 0.00262.

As to C82A A111C A120C C150G C169G, the reverse-splicing fitness stood at 0.00682.

With C82G A120G C150G C169G, the reverse-splicing fitness is 0.00959.

As to C82A A111U A145G C150G C169U, the reverse-splicing fitness stood at 0.0101.

For C82A A111U A120U A145U C150A U176A, the reverse-splicing fitness was determined as 0.00486.

Turning to C82U A111C A120G A145U, the reverse-splicing fitness came out at 0.0159.

Take C82A A111U A120G A145C C150U C169U: the reverse-splicing fitness came to 0.00725.

For C82U A111U A120C C169A U176C, the reverse-splicing fitness was 0.0138.

Regarding C82G A111U A145C U176A, the reverse-splicing fitness stood at 0.19.

On to C82G A111G C150A C169U U176G, for which the reverse-splicing fitness was found to be 0.00706.

As for C82U A111U A120U C169U U176G, the reverse-splicing fitness stood at 0.0019.

Take A111U A120U A145G C169A: the reverse-splicing fitness amounted to 0.00419.

Take C82G A111U A120U A145U C150U C169G U176A: the reverse-splicing fitness is 0.00344.

For C82A A111U A120U A145C C150G, the reverse-splicing fitness came to 0.0059.

Turning to C82A A111C A120U C150G C169G, the reverse-splicing fitness came out at 0.0061.

On to C82A A120C A145G U176A, for which the reverse-splicing fitness turned out to be 0.0426.

Turning to C82U A111U A120U A145C C150G C169U U176G, the reverse-splicing fitness stood at 0.00218.

As to C82U A111U A120U C150U C169U U176A, the reverse-splicing fitness stood at 0.00527.

For C82U A145U C150A C169G, the reverse-splicing fitness stood at 0.00614.

Regarding C82A A111G A120C A145C C150G C169G U176G, the reverse-splicing fitness stood at 0.00568.

Regarding C82A A111U A145U C150U C169A U176G, the reverse-splicing fitness was determined as 0.00727.

Turning to A111U A145G C150A C169U U176C, the reverse-splicing fitness was 0.0191.

For the variant C82G A111C A120G A145U C150U C169A U176G, the reverse-splicing fitness came out at 0.006.

Consider C82U A145G C150A C169G, for which the reverse-splicing fitness worked out at 0.00784.

For C82U A111G A120G A145G C150A C169A U176C, the reverse-splicing fitness was found to be 0.0196.

Take A111C A120G A145C C150A U176A: the reverse-splicing fitness stood at 0.0112.

For the variant C82U A111U A145C C150G C169G U176G, the reverse-splicing fitness was found to be 0.00581.

Regarding C82U A111G A120U A145C C150G C169A U176G, the reverse-splicing fitness stood at 0.00209.

Regarding C82G A120G A145G C169A U176C, the reverse-splicing fitness worked out at 0.0269.

As to C82U A120U A145G C150U U176A, the reverse-splicing fitness is 0.0299.

With C82A A111C A120G A145C U176A, the reverse-splicing fitness worked out at 0.0123.

For A145G C150A C169U U176G, the reverse-splicing fitness amounted to 0.00772.

Turning to C82U A111G A120U A145U C150A C169U U176A, the reverse-splicing fitness stood at 0.00278.

Consider C82A A111U A120U A145G C150A C169A U176G, for which the reverse-splicing fitness was 0.00392.

C82G A111G A120C A145U C150U C169U U176G: the reverse-splicing fitness is 0.00591.

As for C82G A120G A145U C150A C169A U176C, the reverse-splicing fitness was 0.0141.

On to C82A A111C A145U C150G C169A, for which the reverse-splicing fitness was 0.0091.

Regarding A111G A120C A145U C169A U176C, the reverse-splicing fitness was 0.0103.

Take C82A A111C A145G C150G C169G U176G: the reverse-splicing fitness worked out at 0.00568.

On to C82A A120G A145C C150A C169G U176G, for which the reverse-splicing fitness amounted to 0.00464.

For A111U A120G A145U C150U C169U U176A, the reverse-splicing fitness was 0.0396.

As to C82U A120C A145G C169A U176A, the reverse-splicing fitness was found to be 0.0158.

In the case of C82A A111C A120G A145C C150A U176A, the reverse-splicing fitness stood at 0.0103.

Turning to A111U A120U A145U C150U C169A U176A, the reverse-splicing fitness came out at 0.00308.

With A111G C150A U176A, the reverse-splicing fitness came out at 0.275.

Regarding C82G A120C A145C C150U C169A, the reverse-splicing fitness was determined as 0.008.

For C82A A120U C150A U176A, the reverse-splicing fitness amounted to 0.00729.

As to C82G A111C A120G A145G C150G C169U, the reverse-splicing fitness was determined as 0.00859.

As to C82A A120U A145G C150G C169U U176G, the reverse-splicing fitness is 0.00419.

As for A111G A120C A145U C150U C169A U176A, the reverse-splicing fitness is 0.0122.

Turning to C82G A111U A120U A145U C150G C169G U176A, the reverse-splicing fitness worked out at 0.0031.

In the case of C82A A111C A120C A145G C150U C169A, the reverse-splicing fitness was 0.0108.

For the variant A111C A120G A145G C150G C169A U176G, the reverse-splicing fitness stood at 0.00703.

As to C82G A111U A120U A145C C150U C169A U176A, the reverse-splicing fitness turned out to be 0.00212.

For C82A A120C A145C C169G, the reverse-splicing fitness was found to be 0.0102.

Take C82A A111G A120G A145U C169G U176A: the reverse-splicing fitness was 0.0122.

For the variant C82U A111G C169U U176C, the reverse-splicing fitness was found to be 0.0132.

Take C82G A111U A120G A145C C150A C169A: the reverse-splicing fitness is 0.00828.

For C82G A111G A120U C169A U176C, the reverse-splicing fitness was found to be 0.00309.

On to A111G A120C A145C C150A, for which the reverse-splicing fitness worked out at 0.0611.

In the case of C82A A111C A120U C150U U176G, the reverse-splicing fitness is 0.00381.

Regarding C82U A120C A145U C150A C169G, the reverse-splicing fitness was determined as 0.00588.

Consider C82A A111C A120G A145U C150G C169G, for which the reverse-splicing fitness is 0.00749.

Take C82U A111U A145U C150G C169A U176C: the reverse-splicing fitness amounted to 0.00962.

C82A A120U A145C C150U C169U: the reverse-splicing fitness was determined as 0.00313.

As to C82A A111U A120G A145U C169A U176G, the reverse-splicing fitness amounted to 0.00477.

In the case of C82G A111G A120G A145C C150U C169U U176G, the reverse-splicing fitness is 0.00538.

As for C82U A111C A120U A145U C150U C169G U176A, the reverse-splicing fitness turned out to be 0.00231.

Turning to A111U A120C A145G C150U U176G, the reverse-splicing fitness is 0.0319.

Regarding C82A C169G U176G, the reverse-splicing fitness is 0.00442.

Turning to C82A A111U A120C C169G, the reverse-splicing fitness came out at 0.00957.

Consider C82A A111C A120U C169G U176G, for which the reverse-splicing fitness was 0.00234.

With C82G A120U A145U C169U U176G, the reverse-splicing fitness came out at 0.00148.

Consider C82G A111U A120C A145C C150A U176A, for which the reverse-splicing fitness worked out at 0.0111.

Turning to A120C C150G C169U U176G, the reverse-splicing fitness came out at 0.00544.

For the variant C82A A120C C150A C169G U176G, the reverse-splicing fitness is 0.00627.

On to C82A A111G A120G A145U C150G C169U, for which the reverse-splicing fitness came out at 0.00867.

A111G A120C A145C C150U C169U U176A: the reverse-splicing fitness turned out to be 0.0273.

C82G A111C A120G A145G C150U C169A U176G: the reverse-splicing fitness is 0.00695.

Regarding C82G A111C A120G A145G C150A C169A U176A, the reverse-splicing fitness is 0.0181.
